# Results: US11524082B2, “FBSA-based therapeutic and radioimaging conjugates targeting carbonic anhydrase positive cancers” (priority 2017, dated 2022)
# “Also recorded” adds a separate entry of the source.
# Experiments:
# HT-29 xenografts = test: In vivo efficacy of tubulysin conjugates in HT-29 xenograft tumors; design: species or system mice
# Method: Athymic nu/nu mice were purchased from Harlan Laboratories (ENVIGO), housed in a sterile environment on a standard 12 hour light-dark cycle and maintained on normal rodent chow. All animal procedures were approved by the PURDUE Animal Care and Use Committee in accordance with National Institutes of Health guidelines.
# In Vivo Efficacy of Tubulysin Conjugate 12 in HT29 Xenograft Tumors.
# Cells, HT-29 cells (4.25×10^6) were subcutaneously injected into the shoulders of 5-6 week old female nu/nu mice. Tumors were measured in two perpendicular directions thrice weekly with vernier calipers and their volumes were calculated as 0.5×L×W^2, where L is the longest axis (in millimeters), and W is the axis perpendicular to L (in millimeters). Dosing of Conjugate 12 was initiated when the subcutaneous tumors reached ˜100-275 mm^3 in volume. Dosing solutions were prepared in saline and filtered through a 0.22 μm filter. Solutions were administered via tail vein injection or intraperitoneally. […] Injections were given every two days and the mice were weighed concurrently. […]
# HT-29 cells = type: cell-based; conditions: 2 hr incubation, then 66 hr in fresh medium, FIG. 8, read-out: IC50 (3H-thymidine incorporation)
# Method: General Procedure for In Vitro Cytotoxicity Determination by ^3H-Thymidine Uptake Assays
# HT-29 cells were seeded on amine-coated 24-well plates and allowed to form monolayers. The spent medium in each well was replaced with fresh medium (0.5 mL) containing various concentrations of Conjugate 12. After incubating for 2 hr at 37° C., cells were rinsed three times with fresh medium and then incubated an additional 66 hr at 37° C. in fresh medium. Spent medium in each well was again replaced with fresh medium (0.5 mL) containing ^3H-thymidine (1 μCi/ml) and the cells were incubated for an additional 4 hr. After washing the cells three times with medium, they were dissolved in 0.5 mL of 0.25 M NaOH. Thymidine incorporation was then determined by counting cell-associated radioactivity using a scintillation counter (PACKARD, PACKARD INSTRUMENT COMPANY). The IC50 value was derived from a plot of the percent of ^3H-thymidine incorporation versus log concentration using Graph Pad Prism 4 and TABLECURVE 2D software.
structure (smiles),measurement,setting,value
CCCC(=O)OCN(C(=O)[C@@H](NC(=O)C1CCCCN1C)[C@@H](C)CC)[C@H](C[C@@H](OC(C)=O)c1nc(C(=O)N[C@@H](Cc2ccc(O)cc2)C[C@H](C)C(=O)NNC(=O)OCCSSC[C@H](NC(=O)[C@H](CC(=O)O)NC(=O)[C@@H](N)CNC(=O)CCOCCOCCNC(=O)CCS(=O)(=O)c2c(F)c(F)c(S(N)(=O)=O)c(F)c2NC2CCCCCCC2)C(=O)O)cs1)C(C)C (some centres unmarked) [Conjugate 12],gross toxicity,"HT-29 xenografts; HT-29 xenograft mice, 2 μmol/kg per injection",no gross toxicity was observed
same,loss of weight,"HT-29 xenografts; HT-29 xenograft mice, 2 μmol/kg per injection, FIG. 12",less than 10%
same,body mass loss,"HT-29 xenografts; HT-29 xenograft mice, 2 umol/kg, at 6 days into the treatment, FIG. 12",not more than 10%
same,tumor response,"HT-29 xenografts; HT-29 xenografts, 2 μmol/kg per injection, every two days (TIW), n=3, FIG. 11",tumors shrinking; also recorded: halted tumor growth and the xenograft is in the process of shrinking
same,IC50,HT-29 cells,5.04 nM
